These results are taken from patent publication US20200397914A1.

For experiment [1], the target named is human folate receptor 1 (folate receptor alpha, FRα) on T47D cells (human) (UniProt P15328). Nature of the experiment: flow cytometry on T47D cells, FITC anti-human IgG Fcγ detection; control run with M-166.
The target is the same in experiment [2]. Nature of the experiment: flow cytometry on T47D cells, FITC anti-human IgG Fcγ detection; control run with M-160. For orientation: Flow cytometry measures light scatter and fluorescence of single cells or particles in a stream.
The target is the same in experiment [3]. Kind of experiment: flow cytometry on T47D cells, FITC anti-human IgG Fcγ detection; control run with M-sSPDB-17.
The target is the same in experiment [4]. Nature of the experiment: flow cytometry on T47D cells, FITC anti-human IgG Fcγ detection; control run with M-sSPDB-109.
For experiment [5] the target is unchanged. Nature of the experiment: flow cytometry on T47D cells, FITC anti-human IgG Fcγ detection; control run with M-sSPDB-87.
The target is the same in experiment [6]. Nature of the experiment: flow cytometry on T47D cells, FITC anti-human IgG Fcγ detection; control run with M-10.
Experiment [7] shares this target. Nature of the experiment: flow cytometry on T47D cells, FITC anti-human IgG Fcγ detection; control run with M-sSPDB-127.
Experiment [8] shares this target. Nature of the experiment: flow cytometry on T47D cells, FITC anti-human IgG Fcγ detection; control run with M-sSPDB-30.

Chain of human folate receptor 1 (folate receptor alpha, FRα) on T47D cells (human) (P15328 25-234, stated change not applied): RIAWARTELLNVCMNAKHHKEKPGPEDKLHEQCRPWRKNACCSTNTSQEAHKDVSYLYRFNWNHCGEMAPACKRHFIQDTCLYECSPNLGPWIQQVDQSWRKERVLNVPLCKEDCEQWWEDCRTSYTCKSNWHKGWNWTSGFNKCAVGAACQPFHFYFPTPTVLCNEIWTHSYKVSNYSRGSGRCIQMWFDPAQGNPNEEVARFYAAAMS

B1: huMov19 antibody (unconjugated) (antibody, from a related filing, V domains shown)
VH: QVQLVQSGAEVVKPGASVKISCKASGYTFTGYFMNWVKQSPGQSLEWIGRIHPYDGDTFYNQKFQGKATLTVDKSSNTAHMELLSLTSEDFAVYYCTRYDGSRAMDYWGQGTTVTVSS
VL: DIVLTQSPLSLAVSLGQPAIISCKASQSVSFAGTSLMHWYHQKPGQQPRLLIYRASNLEAGVPDRFSGSGSKTDFTLTISPVEAEDAATYYCQQSREYPYTFGGGTKLEIKR
Regarding B1, the EC50 in experiment [1] worked out at 0.2 nM; in experiment [2], 0.2 nM; in experiment [3], 0.2 nM; in experiment [4], 0.2 nM; in experiment [5], 0.2 nM; in experiment [6] it was 0.3 nM. The EC50 in experiment [7] and in experiment [8] was 0.2 nM in each case.

By EC50 is commonly meant the concentration giving half of the maximal effect. A high value points to a less potent agent.
